Source: patent publication US20180340025A1 (Novartis, published 2018)
Residue numbers refer to the chain shown, from its start. Names and notes keep the numbering of the source.

B1: BAP050-hum19 (antibody, human IgG4 S228P, kappa)
heavy: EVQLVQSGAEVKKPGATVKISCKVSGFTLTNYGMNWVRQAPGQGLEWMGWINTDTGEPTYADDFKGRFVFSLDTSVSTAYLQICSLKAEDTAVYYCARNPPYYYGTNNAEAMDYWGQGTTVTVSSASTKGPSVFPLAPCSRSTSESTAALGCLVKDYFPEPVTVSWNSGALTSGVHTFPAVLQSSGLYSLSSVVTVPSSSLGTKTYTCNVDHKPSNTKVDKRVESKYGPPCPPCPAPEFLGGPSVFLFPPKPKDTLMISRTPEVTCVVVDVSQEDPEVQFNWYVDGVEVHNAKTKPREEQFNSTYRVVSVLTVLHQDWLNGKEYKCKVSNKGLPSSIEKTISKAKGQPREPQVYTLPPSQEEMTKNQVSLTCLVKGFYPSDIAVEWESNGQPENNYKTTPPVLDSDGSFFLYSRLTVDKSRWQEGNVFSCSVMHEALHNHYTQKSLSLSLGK
light: EIVLTQSPDFQSVTPKEKVTITCSSSQDISNYLNWYQQKPGQAPRLLIYYTSTLHLGVPSRFSGSGSGTDFTFTISSLEAEDAATYYCQQYYNLPWTFGQGTKVEIKRTVAAPSVFIFPPSDEQLKSGTASVVCLLNNFYPREAKVQWKVDNALQSGNSQESVTEQDSKDSTYSLSSTLTLSKADYEKHKVYACEVTHQGLSSPVTKSFNRGEC
notes: humanized IgG4(S228P)/kappa, transient CHO supernatant
B2: BAP050-hum08 (antibody, human IgG4 S228P, kappa)
heavy: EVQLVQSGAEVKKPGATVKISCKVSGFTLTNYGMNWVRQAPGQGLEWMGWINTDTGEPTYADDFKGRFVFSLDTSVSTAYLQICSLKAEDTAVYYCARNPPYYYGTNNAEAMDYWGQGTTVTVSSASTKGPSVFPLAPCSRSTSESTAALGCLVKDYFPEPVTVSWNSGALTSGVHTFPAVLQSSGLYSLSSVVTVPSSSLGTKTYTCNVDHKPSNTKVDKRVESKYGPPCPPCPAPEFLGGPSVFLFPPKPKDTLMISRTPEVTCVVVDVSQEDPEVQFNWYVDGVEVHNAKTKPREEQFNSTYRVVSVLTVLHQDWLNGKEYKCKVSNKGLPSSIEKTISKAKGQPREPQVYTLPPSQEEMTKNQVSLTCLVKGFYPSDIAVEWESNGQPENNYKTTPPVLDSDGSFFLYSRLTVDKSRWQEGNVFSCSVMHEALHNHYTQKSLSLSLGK
light: B1 light with F73L, E79Q, A80P, A83F
notes: as for B1
B3: BAP050-hum16 (antibody, human IgG4 S228P, kappa, V domains shown)
VH: EVQLVQSGAEVKKPGESLRISCKGSGFTLTNYGMNWVRQATGQGLEWMGWINTDTGEPTYADDFKGRVTISADKSISTAYLQWSSLKASDTAMYYCARNPPYYYGTNNAEAMDYWGQGTTVTVSS
VL: EIVLTQSPDFQSVTPKEKVTITCSSSQDISNYLNWYQQKPGQAPRLLIYYTSTLHLGVPSRFSGSGSGTDFTLTISSLQPEDFATYYCQQYYNLPWTFGQGTKVEIKR
notes: as for B1
B4: BAP050-hum03 (antibody, human IgG4 S228P, kappa)
heavy: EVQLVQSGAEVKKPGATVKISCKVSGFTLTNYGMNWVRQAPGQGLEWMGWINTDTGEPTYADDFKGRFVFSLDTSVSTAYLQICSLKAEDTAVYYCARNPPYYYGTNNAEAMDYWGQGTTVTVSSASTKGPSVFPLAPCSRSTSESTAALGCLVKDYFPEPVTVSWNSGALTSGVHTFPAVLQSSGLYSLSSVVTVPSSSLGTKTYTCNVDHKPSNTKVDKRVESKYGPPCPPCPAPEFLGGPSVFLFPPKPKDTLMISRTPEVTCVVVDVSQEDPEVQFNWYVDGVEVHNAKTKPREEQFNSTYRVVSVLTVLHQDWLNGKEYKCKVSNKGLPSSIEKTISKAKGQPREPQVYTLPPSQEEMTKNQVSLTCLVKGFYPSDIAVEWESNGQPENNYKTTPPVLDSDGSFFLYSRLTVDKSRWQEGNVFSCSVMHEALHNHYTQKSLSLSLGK
light: EIVLTQSPATLPVTLGQPASISCSSSQDISNYLNWYQQKPGQAPRLLIYYTSTLHLGVPSRFSGSGSGTDFTFTISSLEAEDAATYYCQQYYNLPWTFGQGTKVEIKRTVAAPSVFIFPPSDEQLKSGTASVVCLLNNFYPREAKVQWKVDNALQSGNSQESVTEQDSKDSTYSLSSTLTLSKADYEKHKVYACEVTHQGLSSPVTKSFNRGEC
notes: as for B1
B5: BAP050-hum14 (antibody, human IgG4 S228P, kappa, V domains shown)
VH: EVQLVQSGAEVKKPGATVKISCKVSGFTLTNYGMNWIRQSPSRGLEWLGWINTDTGEPTYADDFKGRFVFSLDTSVSTAYLQICSLKAEDTAVYYCARNPPYYYGTNNAEAMDYWGQGTTVTVSS
VL: EIVLTQSPATLPVTLGQPASISCSSSQDISNYLNWYQQKPGQAPRLLIYYTSTLHLGVPSRFSGSGSGTDFTFTISSLEAEDAATYYCQQYYNLPWTFGQGTKVEIKR
notes: as for B1
B6: BAP050-hum15 (antibody, human IgG4 S228P, kappa, V domains shown)
VH: B5 VH
VL: B3 VL
notes: as for B1
B7: BAP050-hum20 (antibody, human IgG4 S228P, kappa, V domains shown)
VH: QVQLVQSGAEVKKPGASVKVSCKASGFTLTNYGMNWVRQARGQRLEWIGWINTDTGEPTYADDFKGRFVFSLDTSVSTAYLQICSLKAEDTAVYYCARNPPYYYGTNNAEAMDYWGQGTTVTVSS
VL: DIVMTQTPLSLPVTPGEPASISCSSSQDISNYLNWYQQKPGQAPRLLIYYTSTLHLGIPDRFSGSGSGTDFTLTISRLEPEDFAVYYCQQYYNLPWTFGQGTKVEIKR
notes: as for B1
B8: BAP050-hum12 (antibody, human IgG4 S228P, kappa, V domains shown)
VH: B7 VH
VL: B3 VL
notes: humanized IgG4(S228P)/kappa, transient CHO supernatant; also called humanized clone No. 12
B9: BAP050-hum17 (antibody, human IgG4 S228P, kappa, V domains shown)
VH: B7 VH with A9S, V11L, R41P, R44G, I48M, C84S, S85T, V93T, Y95F
VL: DIQMTQSPSSLSASVGDRVTITCSSSQDISNYLNWYQQKPGKAPKLLIYYTSTLHLGVPSRFSGSGSGTDFTFTISSLQPEDIATYYCQQYYNLPWTFGQGTKVEIKR
notes: as for B1
B10: BAP050-hum06 (antibody, human IgG4 S228P, kappa, V domains shown)
VH: B5 VH with I37V, S40A, S42G, R43Q, L48M
VL: B7 VL with I58V, D60S, D70E, R77S, E79Q, E81D, V85T
notes: as for B1
B11: BAP050-hum11 (antibody, human IgG4 S228P, kappa, V domains shown)
VH: B7 VH
VL: B9 VL with Q37L, K42Q, A43S, K45Q, D70E, F73L, E81D, I83F
notes: humanized IgG4(S228P)/kappa, transient CHO supernatant; also called humanized clone No. 11
B12: BAP050-hum09 (antibody, human IgG4 S228P, kappa, V domains shown)
VH: B7 VH
VL: DIQMTQSPSSLSASVGDRVTITCSSSQDISNYLNWYQQKPGKAPKLLIYYTSTLHLGIPPRFSGSGYGTDFTLTINNIESEDAAYYFCQQYYNLPWTFGQGTKVEIKR
notes: humanized IgG4(S228P)/kappa, transient CHO supernatant; also called humanized clone No. 09
B13: BAP050-hum10 (antibody, human IgG4 S228P, kappa, V domains shown)
VH: B7 VH
VL: B5 VL
notes: as for B1
B14: BAP050-hum13 (antibody, human IgG4 S228P, kappa, V domains shown)
VH: B7 VH with R41P, R44G, I48M
VL: B12 VL
notes: humanized IgG4(S228P)/kappa, transient CHO supernatant; also called humanized clone No. 13
B15: BAP050-hum07 (antibody, human IgG4 S228P, kappa, V domains shown)
VH: B5 VH with I37V, S40A, S42G, R43Q, L48M
VL: B9 VL with Q37L, K42Q, A43S, K45Q, D70E, F73L, E81D, I83F
notes: as for B1
B16: BAP050-hum02 (antibody, human IgG4 S228P, kappa, V domains shown)
VH: B5 VH with I37V, S40A, S42G, R43Q, L48M
VL: B12 VL
notes: humanized IgG4(S228P)/kappa, transient CHO supernatant; also called humanized clone No. 02
B17: BAP050-hum05 (antibody, human IgG4 S228P, kappa)
heavy: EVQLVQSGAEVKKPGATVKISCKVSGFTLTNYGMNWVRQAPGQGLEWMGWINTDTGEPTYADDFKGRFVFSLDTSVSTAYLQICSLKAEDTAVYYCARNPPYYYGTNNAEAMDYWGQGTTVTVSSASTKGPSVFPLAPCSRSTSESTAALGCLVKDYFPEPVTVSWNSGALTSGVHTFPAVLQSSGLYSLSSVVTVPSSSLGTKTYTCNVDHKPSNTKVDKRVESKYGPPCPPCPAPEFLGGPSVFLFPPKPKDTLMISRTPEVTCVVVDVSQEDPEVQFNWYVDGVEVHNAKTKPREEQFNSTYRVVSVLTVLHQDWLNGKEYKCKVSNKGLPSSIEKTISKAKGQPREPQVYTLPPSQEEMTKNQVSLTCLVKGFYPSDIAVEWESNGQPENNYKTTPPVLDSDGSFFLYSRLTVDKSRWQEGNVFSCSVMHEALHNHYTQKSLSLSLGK
light: B4 light with P12S, V13L, T14S, L15P, Q17E, P18R, S20T, I21L, Q42K, R45K
notes: humanized IgG4(S228P)/kappa, transient CHO supernatant; also called humanized clone No. 05
B18: BAP050-hum04 (antibody, human IgG4 S228P, kappa, V domains shown)
VH: B5 VH with I37V, S40A, S42G, R43Q, L48M
VL: DIQMTQSPSSLSASVGDRVTITCSSSQDISNYLNWYLQKPGQSPQLLIYYTSTLHLGIPDRFSGSGSGTDFTLTISRLEPEDFAVYYCQQYYNLPWTFGQGTKVEIKR
notes: as for B1
B19: BAP050-hum02-Ser (antibody, human IgG4 S228P, kappa, V domains shown)
VH: B5 VH with I37V, S40A, S42G, R43Q, L48M, C84S
VL: B12 VL
notes: C84S in VHFW3 of BAP050-hum02; IgG4(S228P)/kappa; also called clone No. 2S; huBAP050(Ser) clone
B20: BAP050-hum09-Ser (antibody, human IgG4 S228P, kappa, V domains shown)
VH: B7 VH with C84S
VL: B12 VL
notes: C84S in VHFW3 of BAP050-hum09; IgG4(S228P)/kappa; also called clone No. 9S; huBAP050(Ser) clone

These binders were tested against T1, human LAG-3 expressed on cells (human, UniProt P18627 23-525) (assay: rank of the clone among the humanized clones by the FACS binding data on LAG-3-expressing cells).
T1 construct: whole, on cells; Treated as one protein; the host cell is named under assay; also called LAG-3-expressing CHO cells; LAG-3-transfected CHO cells
T1 sequence (looked up): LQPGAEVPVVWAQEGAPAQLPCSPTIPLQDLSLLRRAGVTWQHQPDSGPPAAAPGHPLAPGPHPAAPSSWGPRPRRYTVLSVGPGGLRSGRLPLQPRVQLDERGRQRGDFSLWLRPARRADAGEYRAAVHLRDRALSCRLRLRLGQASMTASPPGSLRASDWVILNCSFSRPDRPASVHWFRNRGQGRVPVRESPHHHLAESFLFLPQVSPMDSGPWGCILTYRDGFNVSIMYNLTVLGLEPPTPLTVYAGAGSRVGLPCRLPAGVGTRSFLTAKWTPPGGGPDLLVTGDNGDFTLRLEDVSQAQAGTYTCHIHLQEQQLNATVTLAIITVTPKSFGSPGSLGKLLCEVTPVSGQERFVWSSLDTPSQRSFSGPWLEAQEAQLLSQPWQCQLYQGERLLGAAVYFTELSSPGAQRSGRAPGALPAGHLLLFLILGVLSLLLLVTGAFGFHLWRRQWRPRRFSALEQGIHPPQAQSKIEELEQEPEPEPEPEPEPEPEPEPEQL
In the case of B1, the “Ranking, Binding data” value is reported as 9.
B2 was tested, and the “Ranking, Binding data” value was 4.
In the case of B3, the “Ranking, Binding data” value is reported as 20.
In the case of B4, the “Ranking, Binding data” value is reported as 7.
B5 was tested, and the “Ranking, Binding data” value was 9.
B6 was tested, and the “Ranking, Binding data” value was 20.
For B7, the “Ranking, Binding data” value was 9.
B8 was tested, and the “Ranking, Binding data” value was 3.
For B9, the “Ranking, Binding data” value was 9.
With B10 the “Ranking, Binding data” value was 9.
For B11, the “Ranking, Binding data” value was 2.
For B12, the “Ranking, Binding data” value was 8.
With B13 the “Ranking, Binding data” value was 9.
For B14, the “Ranking, Binding data” value was 9.
B15 was tested, and the “Ranking, Binding data” value was 8.
B16 was tested, and the “Ranking, Binding data” value was 5.
For B17, the “Ranking, Binding data” value was 6.
With B18 the “Ranking, Binding data” value was 8.

What follows are binders tested against T1, human LAG-3 expressed on cells (assay: rank of the clone by the competition binding data (test mAb against FITC-labeled murine BAP050 on LAG-3-expressing CHO cells), curve position relative to the chimeric mAb in two experiments).
Description: Incubations with the mAb mixtures having different concentration ratios of test mAb to labeled mAb was at 4° C. for 30 min. […] The experiment was performed twice.
Such a ranking system was used in FIG. 6.
For B1, the “Ranking, Compet. data” value was greater than 3.
B2 was tested, and the “Ranking, Compet. data” value was greater than 3.
For B3, the “Ranking, Compet. data” value was 20.
With B4 the “Ranking, Compet. data” value was 1.
For B5, the “Ranking, Compet. data” value was greater than 3.
In the case of B6, the “Ranking, Compet. data” value is reported as 20.
For B7, the “Ranking, Compet. data” value was 3.
For B8, the “Ranking, Compet. data” value was 2.
With B9 the “Ranking, Compet. data” value was greater than 3.
With B10 the “Ranking, Compet. data” value was 1.
For B11, the “Ranking, Compet. data” value was 2.
In the case of B12, the “Ranking, Compet. data” value is reported as 2.
In the case of B13, the “Ranking, Compet. data” value is reported as 2.
B14 was tested, and the “Ranking, Compet. data” value was 3.
In the case of B15, the “Ranking, Compet. data” value is reported as greater than 3.
For B16, the “Ranking, Compet. data” value was 1.
For B17, the “Ranking, Compet. data” value was greater than 3.
With B18 the “Ranking, Compet. data” value was 2.

The binders below were run against T1, human LAG-3 expressed on cells (assay: FACS competition: serial dilutions of the test mAb against a constant concentration of FITC-labeled murine BAP050 on LAG-3-expressing CHO cells; MFI of bound labelled mAb).
B19: binds.
B20: binds.
